In publication PMC11216086, “The structure of TRAF7 coiled-coil trimer provides insight into its function in zebrafish embryonic development” (Journal of Molecular Cell Biology, 2024):

B1: TrxA-tagged wild-type human TRAF7 CC (fragment 270–379 aa) [human] / itself (parent)
chain: GNQDTYETHLETCRFEGLKEFLQQTDDRFHEMHVALAQKDQEIAFLRSMLGKLSEKIDQLEKSLELKFDVLDENQSKLSEDLMEFRRDASMLNDELSHINARLNMGILGS

Variants of: B1
Assay: SEC-MALS (self-association / trimerisation)
Conditions: with itself; TrxA-tagged at the N-terminus; theoretical molecular weight of the WT trimer is 84.9 kDa

Variant	screen value [kDa]
chain 1 L53R	49.5
chain 1 L78R	63.5
